Results published in patent publication US20020169118A1 (Amgen, published 2002).

Molecular target: T1, TNF-β (lymphotoxin) (UniProt P01374 35-205, limits assumed)
T1 sequence (looked up): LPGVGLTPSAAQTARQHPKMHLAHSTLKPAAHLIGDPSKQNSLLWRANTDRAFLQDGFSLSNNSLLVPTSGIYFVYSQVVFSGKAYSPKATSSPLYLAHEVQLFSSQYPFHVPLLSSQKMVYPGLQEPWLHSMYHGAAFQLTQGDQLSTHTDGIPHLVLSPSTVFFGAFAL
Assay: preliminary competition binding tests; reference TNF-α

B1: TNF-BP (TNF binding protein), natural, purified from dialyzed urine of uraemia patients (receptor)
chain: DSVCPQGKYIHPQNNSICCTKCHKGTYLYNDCPGPGQDTDCRECESGSFTASENHLRHCLSCSKCRKEMGQVEISSCTVDRDTVCGCRKNQYRHYWSENLFQCFNCSLCLNGTVHLSCQEKQNTVCTCHAGFFLRENECVSCSNCKKSLECTKLCLPQIEN
modifications: glycoprotein; Asn-25 glycosylated (numbering of the TNF-BP cDNA sequence, Leu-1 = first residue after the signal peptide)
notes: Soluble extracellular part of the human TNF receptor; The main form (about 80% of the protein) starts at Asp-12; also called natural TNF-BP
affinity for TNF-β relative to its affinity for TNF-α: ~0.02 fold
